Laboratory results reported in patent US20210181204A1.

Biological target: eCry3.1Ab hybrid insecticidal protein
Assay: direct ELISA: eCry3.1Ab coated at 1 ug/ml, RGS-His HRP detection

B1: synNAPS13 variant Y44A (designed binder)
chain: RGSHHHHHHGSMVKVKFKRWGEEKEVDTSKILHVLRVGKYVRFSYDDNGKLGAGAVTEKDAPKELLDMLARAEREKK
Question: With B1 as the binder, how does the Binding (OD 450 nm) read?
Answer: The Binding (OD 450 nm) was 0.4 OD 450 nm.
